Measurements reported in paper PMC3521694 (PLoS Pathogens, 2012).

Target: full-length VipD (vacuolar protein sorting inhibitor protein D) (Legionella pneumophila, UniProt Q5ZRP9 1-621)
Test: ITC; […]; 25°C; 20 mM Tris-HCl pH 7.5, 100 mM NaCl; iTC200
Conditions: both partners purified

B1: Rab5b(1-190):GDP (domain or fragment)
chain: MTSRSTARPNGQPQASKICQFKLVLLGESAVGKSSLVLRFVKGQFHEYQESTIGAAFLTQSVCLDDTTVKFEIWDTAGQERYHSLAPMYYRGAQAAIVVYDITNQETFARAKTWVKELQRQASPSIVIALAGNKADLANKRMVEYEEAQAYADDNSLLFMETSAKTAMNVNDLFLAIAKKLPKSEPQNLG
notes: also called wild-type Rab5b(1-190)
Kd: 3150 nM

B2: Rab22a(1-175):GDP (domain or fragment)
chain: MALRELKVCLLGDTGVGKSSIVWRFVEDSFDPNINPTIGASFMTKTVQYQNELHKFLIWDTAGQERFRALAPMYYRGSAAAIIVYDITKEETFSTLKNWVKELRQHGPPNIVVAIAGNKCDLIDVREVMERDAKDYADSIHAIFVETSAKNAININELFIEISRRIPSTDANLPS
notes: also called wild-type Rab22a(1-175)
Kd: 123 nM
